“And” between values parts separate entries of the source, which are not always exact repeats. Equal entries are not always repeated.

As a reminder, the stoichiometry N is a count of units in the complex or per binding partner.

Sequences and labels used below:
T1: Speckle-type POZ protein (SPOP), full-length, wild type (human), O43791
T1 chain: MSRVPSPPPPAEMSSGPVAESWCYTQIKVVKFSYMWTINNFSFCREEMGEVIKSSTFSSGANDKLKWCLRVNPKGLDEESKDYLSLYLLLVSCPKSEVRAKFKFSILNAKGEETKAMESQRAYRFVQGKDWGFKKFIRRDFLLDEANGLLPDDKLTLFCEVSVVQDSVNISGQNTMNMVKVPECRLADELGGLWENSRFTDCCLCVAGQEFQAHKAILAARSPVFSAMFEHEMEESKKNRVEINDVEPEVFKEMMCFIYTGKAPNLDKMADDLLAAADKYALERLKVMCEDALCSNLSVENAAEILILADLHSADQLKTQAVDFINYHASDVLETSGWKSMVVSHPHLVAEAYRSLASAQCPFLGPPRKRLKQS

B1: SPOP S96R, full-length (natural protein)
chain: MSRVPSPPPPAEMSSGPVAESWCYTQIKVVKFSYMWTINNFSFCREEMGEVIKSSTFSSGANDKLKWCLRVNPKGLDEESKDYLSLYLLLVSCPKREVRAKFKFSILNAKGEETKAMESQRAYRFVQGKDWGFKKFIRRDFLLDEANGLLPDDKLTLFCEVSVVQDSVNISGQNTMNMVKVPECRLADELGGLWENSRFTDCCLCVAGQEFQAHKAILAARSPVFSAMFEHEMEESKKNRVEINDVEPEVFKEMMCFIYTGKAPNLDKMADDLLAAADKYALERLKVMCEDALCSNLSVENAAEILILADLHSADQLKTQAVDFINYHASDVLETSGWKSMVVSHPHLVAEAYRSLASAQCPFLGPPRKRLKQS
B2: SPOP M117V (natural protein)
chain: MSRVPSPPPPAEMSSGPVAESWCYTQIKVVKFSYMWTINNFSFCREEMGEVIKSSTFSSGANDKLKWCLRVNPKGLDEESKDYLSLYLLLVSCPKSEVRAKFKFSILNAKGEETKAVESQRAYRFVQGKDWGFKKFIRRDFLLDEANGLLPDDKLTLFCEVSVVQDSVNISGQNTMNMVKVPECRLADELGGLWENSRFTDCCLCVAGQEFQAHKAILAARSPVFSAMFEHEMEESKKNRVEINDVEPEVFKEMMCFIYTGKAPNLDKMADDLLAAADKYALERLKVMCEDALCSNLSVENAAEILILADLHSADQLKTQAVDFINYHASDVLETSGWKSMVVSHPHLVAEAYRSLASAQCPFLGPPRKRLKQS
B3: SPOP G128S (natural protein)
chain: MSRVPSPPPPAEMSSGPVAESWCYTQIKVVKFSYMWTINNFSFCREEMGEVIKSSTFSSGANDKLKWCLRVNPKGLDEESKDYLSLYLLLVSCPKSEVRAKFKFSILNAKGEETKAMESQRAYRFVQSKDWGFKKFIRRDFLLDEANGLLPDDKLTLFCEVSVVQDSVNISGQNTMNMVKVPECRLADELGGLWENSRFTDCCLCVAGQEFQAHKAILAARSPVFSAMFEHEMEESKKNRVEINDVEPEVFKEMMCFIYTGKAPNLDKMADDLLAAADKYALERLKVMCEDALCSNLSVENAAEILILADLHSADQLKTQAVDFINYHASDVLETSGWKSMVVSHPHLVAEAYRSLASAQCPFLGPPRKRLKQS
B4: SPOP G128D, full-length (natural protein)
chain: MSRVPSPPPPAEMSSGPVAESWCYTQIKVVKFSYMWTINNFSFCREEMGEVIKSSTFSSGANDKLKWCLRVNPKGLDEESKDYLSLYLLLVSCPKSEVRAKFKFSILNAKGEETKAMESQRAYRFVQDKDWGFKKFIRRDFLLDEANGLLPDDKLTLFCEVSVVQDSVNISGQNTMNMVKVPECRLADELGGLWENSRFTDCCLCVAGQEFQAHKAILAARSPVFSAMFEHEMEESKKNRVEINDVEPEVFKEMMCFIYTGKAPNLDKMADDLLAAADKYALERLKVMCEDALCSNLSVENAAEILILADLHSADQLKTQAVDFINYHASDVLETSGWKSMVVSHPHLVAEAYRSLASAQCPFLGPPRKRLKQS
B5: SPOP E47Q (natural protein)
chain: MSRVPSPPPPAEMSSGPVAESWCYTQIKVVKFSYMWTINNFSFCREQMGEVIKSSTFSSGANDKLKWCLRVNPKGLDEESKDYLSLYLLLVSCPKSEVRAKFKFSILNAKGEETKAMESQRAYRFVQGKDWGFKKFIRRDFLLDEANGLLPDDKLTLFCEVSVVQDSVNISGQNTMNMVKVPECRLADELGGLWENSRFTDCCLCVAGQEFQAHKAILAARSPVFSAMFEHEMEESKKNRVEINDVEPEVFKEMMCFIYTGKAPNLDKMADDLLAAADKYALERLKVMCEDALCSNLSVENAAEILILADLHSADQLKTQAVDFINYHASDVLETSGWKSMVVSHPHLVAEAYRSLASAQCPFLGPPRKRLKQS
B6: SPOP K134N, full-length (natural protein)
chain: MSRVPSPPPPAEMSSGPVAESWCYTQIKVVKFSYMWTINNFSFCREEMGEVIKSSTFSSGANDKLKWCLRVNPKGLDEESKDYLSLYLLLVSCPKSEVRAKFKFSILNAKGEETKAMESQRAYRFVQGKDWGFNKFIRRDFLLDEANGLLPDDKLTLFCEVSVVQDSVNISGQNTMNMVKVPECRLADELGGLWENSRFTDCCLCVAGQEFQAHKAILAARSPVFSAMFEHEMEESKKNRVEINDVEPEVFKEMMCFIYTGKAPNLDKMADDLLAAADKYALERLKVMCEDALCSNLSVENAAEILILADLHSADQLKTQAVDFINYHASDVLETSGWKSMVVSHPHLVAEAYRSLASAQCPFLGPPRKRLKQS
B7: SPOP R221C (natural protein)
chain: MSRVPSPPPPAEMSSGPVAESWCYTQIKVVKFSYMWTINNFSFCREEMGEVIKSSTFSSGANDKLKWCLRVNPKGLDEESKDYLSLYLLLVSCPKSEVRAKFKFSILNAKGEETKAMESQRAYRFVQGKDWGFKKFIRRDFLLDEANGLLPDDKLTLFCEVSVVQDSVNISGQNTMNMVKVPECRLADELGGLWENSRFTDCCLCVAGQEFQAHKAILAACSPVFSAMFEHEMEESKKNRVEINDVEPEVFKEMMCFIYTGKAPNLDKMADDLLAAADKYALERLKVMCEDALCSNLSVENAAEILILADLHSADQLKTQAVDFINYHASDVLETSGWKSMVVSHPHLVAEAYRSLASAQCPFLGPPRKRLKQS
B8: SPOP M48I (natural protein)
chain: MSRVPSPPPPAEMSSGPVAESWCYTQIKVVKFSYMWTINNFSFCREEIGEVIKSSTFSSGANDKLKWCLRVNPKGLDEESKDYLSLYLLLVSCPKSEVRAKFKFSILNAKGEETKAMESQRAYRFVQGKDWGFKKFIRRDFLLDEANGLLPDDKLTLFCEVSVVQDSVNISGQNTMNMVKVPECRLADELGGLWENSRFTDCCLCVAGQEFQAHKAILAARSPVFSAMFEHEMEESKKNRVEINDVEPEVFKEMMCFIYTGKAPNLDKMADDLLAAADKYALERLKVMCEDALCSNLSVENAAEILILADLHSADQLKTQAVDFINYHASDVLETSGWKSMVVSHPHLVAEAYRSLASAQCPFLGPPRKRLKQS
B9: SPOP K129E (natural protein)
chain: MSRVPSPPPPAEMSSGPVAESWCYTQIKVVKFSYMWTINNFSFCREEMGEVIKSSTFSSGANDKLKWCLRVNPKGLDEESKDYLSLYLLLVSCPKSEVRAKFKFSILNAKGEETKAMESQRAYRFVQGEDWGFKKFIRRDFLLDEANGLLPDDKLTLFCEVSVVQDSVNISGQNTMNMVKVPECRLADELGGLWENSRFTDCCLCVAGQEFQAHKAILAARSPVFSAMFEHEMEESKKNRVEINDVEPEVFKEMMCFIYTGKAPNLDKMADDLLAAADKYALERLKVMCEDALCSNLSVENAAEILILADLHSADQLKTQAVDFINYHASDVLETSGWKSMVVSHPHLVAEAYRSLASAQCPFLGPPRKRLKQS
B10: SPOP R70L (natural protein)
chain: MSRVPSPPPPAEMSSGPVAESWCYTQIKVVKFSYMWTINNFSFCREEMGEVIKSSTFSSGANDKLKWCLLVNPKGLDEESKDYLSLYLLLVSCPKSEVRAKFKFSILNAKGEETKAMESQRAYRFVQGKDWGFKKFIRRDFLLDEANGLLPDDKLTLFCEVSVVQDSVNISGQNTMNMVKVPECRLADELGGLWENSRFTDCCLCVAGQEFQAHKAILAARSPVFSAMFEHEMEESKKNRVEINDVEPEVFKEMMCFIYTGKAPNLDKMADDLLAAADKYALERLKVMCEDALCSNLSVENAAEILILADLHSADQLKTQAVDFINYHASDVLETSGWKSMVVSHPHLVAEAYRSLASAQCPFLGPPRKRLKQS
B11: Speckle-type POZ protein (SPOP), full-length, wild type, O43791 1-374 (natural protein)
chain: MSRVPSPPPPAEMSSGPVAESWCYTQIKVVKFSYMWTINNFSFCREEMGEVIKSSTFSSGANDKLKWCLRVNPKGLDEESKDYLSLYLLLVSCPKSEVRAKFKFSILNAKGEETKAMESQRAYRFVQGKDWGFKKFIRRDFLLDEANGLLPDDKLTLFCEVSVVQDSVNISGQNTMNMVKVPECRLADELGGLWENSRFTDCCLCVAGQEFQAHKAILAARSPVFSAMFEHEMEESKKNRVEINDVEPEVFKEMMCFIYTGKAPNLDKMADDLLAAADKYALERLKVMCEDALCSNLSVENAAEILILADLHSADQLKTQAVDFINYHASDVLETSGWKSMVVSHPHLVAEAYRSLASAQCPFLGPPRKRLKQS

One series concerns the molecule itself. Briefly: negative-stain TEM.
Conditions: not given
For B1, the binding result is listed as “binds”.
The same measure, in the same setting: the entry for B2 is “binds”; for B3 it is “binds”.
Consider B4, for which the binding result is listed as “binds”.
Still for that read-out and setting: the entry for B5 is “binds”; for B6 it is “binds”; for B7 it is “binds”.
Same read-out and setting: under B8 stands “binds”.
Same read-out and setting: under B9 stands “binds”; under B10, “binds”.

In another series the target is BRD3 peptide containing the main SPOP-binding motif of BRD3. Briefly: fluorescence polarisation.
Conditions: not given
On to “SPOP MATH domain K134N (from UniProt O43791 31-161) (domain or fragment)”, for which the fold weaker binding than the WT MATH domain amounted to 4 fold.
The molecule “SPOP K134N, full-length (from UniProt O43791 1-374) (natural protein)” yielded a fold weaker binding than full-length WT of 11 fold.

For the next series, the target named is T1, Speckle-type POZ protein (SPOP), …. Briefly: cryo-EM structure. To be noted: remark: other sources report otherwise.
For the molecule B11, the stoichiometry N is 48 monomers and 56 monomers.

The values above are taken from paper PMC12262686 (bioRxiv, 2025).
